Measurements reported in patent US20150158921A1.

Experiments:
Test in all cases: cell-based or functional assay
[1] = target: rat α7 nAChR (rat), Q05941
[2] = target: rat α3β2 nAChR (rat), P04757
[3] = target: rat α2β2 nAChR (rat), P12389
[4] = target: rat α2β4 nAChR (rat), P12389
[5] = target: rat NMDA receptor NR1-2b/NR2A (rat), P35439
[6] = target: rat α6/α3β4 nAChR (rat), P12392
[7] = target: rat α3β4 nAChR (rat), P04757
[8] = target: rat α6/α3β2β3 nAChR (rat), P12390
[9] = target: human α7 nAChR (human), P36544
[10] = target: rat NMDA receptor NR1-2b/NR2C (rat), P35439
[11] = target: rat NMDA receptor NR1-2b/NR2B (rat), P35439
[12] = target: rat NMDA receptor NR1-2b/NR2D (rat), P35439
[13] = target: human α6/α3β2β3 nAChR (human), P17787
[14] = target: rat α4β4 nAChR (rat), P09483
[15] = target: rat α4β2 nAChR (rat), P09483

Chain of rat α3β4 nAChR (rat), P04757 (P04757 26-499, chain 1 of 2): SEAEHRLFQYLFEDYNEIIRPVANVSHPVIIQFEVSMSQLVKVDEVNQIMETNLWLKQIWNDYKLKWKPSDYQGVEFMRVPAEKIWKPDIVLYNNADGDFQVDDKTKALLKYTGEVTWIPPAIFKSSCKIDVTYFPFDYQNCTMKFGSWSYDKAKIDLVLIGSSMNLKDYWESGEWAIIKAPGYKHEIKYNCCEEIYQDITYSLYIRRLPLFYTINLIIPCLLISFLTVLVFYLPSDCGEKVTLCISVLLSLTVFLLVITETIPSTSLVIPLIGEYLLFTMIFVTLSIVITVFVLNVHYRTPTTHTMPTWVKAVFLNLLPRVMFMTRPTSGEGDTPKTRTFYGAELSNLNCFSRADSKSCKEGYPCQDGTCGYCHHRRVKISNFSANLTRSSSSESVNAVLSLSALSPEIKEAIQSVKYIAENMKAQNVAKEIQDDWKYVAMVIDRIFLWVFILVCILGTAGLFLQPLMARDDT
Chain of rat α3β4 nAChR (rat), P04757 (P12392 21-495, chain 2 of 2, further chain): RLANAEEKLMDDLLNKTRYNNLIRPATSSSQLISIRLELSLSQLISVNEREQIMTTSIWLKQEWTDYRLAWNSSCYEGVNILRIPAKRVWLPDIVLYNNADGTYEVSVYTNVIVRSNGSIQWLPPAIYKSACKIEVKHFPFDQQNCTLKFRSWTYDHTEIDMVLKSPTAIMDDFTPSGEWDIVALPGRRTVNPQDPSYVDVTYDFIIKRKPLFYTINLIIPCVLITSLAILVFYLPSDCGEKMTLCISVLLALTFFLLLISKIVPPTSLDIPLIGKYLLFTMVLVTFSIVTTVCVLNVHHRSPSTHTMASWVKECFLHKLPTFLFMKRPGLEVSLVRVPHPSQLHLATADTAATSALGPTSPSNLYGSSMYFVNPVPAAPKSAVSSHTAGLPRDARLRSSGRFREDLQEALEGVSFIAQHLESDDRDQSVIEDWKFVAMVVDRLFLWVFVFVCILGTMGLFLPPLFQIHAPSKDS
Chain of rat α3β2 nAChR (rat), P04757 (P04757 26-499, chain 1 of 2): as the sequence (P04757 26-499, chain 1 of 2) above
Chain of rat α3β2 nAChR (rat), P04757 (P12390 25-500, chain 2 of 2, further chain): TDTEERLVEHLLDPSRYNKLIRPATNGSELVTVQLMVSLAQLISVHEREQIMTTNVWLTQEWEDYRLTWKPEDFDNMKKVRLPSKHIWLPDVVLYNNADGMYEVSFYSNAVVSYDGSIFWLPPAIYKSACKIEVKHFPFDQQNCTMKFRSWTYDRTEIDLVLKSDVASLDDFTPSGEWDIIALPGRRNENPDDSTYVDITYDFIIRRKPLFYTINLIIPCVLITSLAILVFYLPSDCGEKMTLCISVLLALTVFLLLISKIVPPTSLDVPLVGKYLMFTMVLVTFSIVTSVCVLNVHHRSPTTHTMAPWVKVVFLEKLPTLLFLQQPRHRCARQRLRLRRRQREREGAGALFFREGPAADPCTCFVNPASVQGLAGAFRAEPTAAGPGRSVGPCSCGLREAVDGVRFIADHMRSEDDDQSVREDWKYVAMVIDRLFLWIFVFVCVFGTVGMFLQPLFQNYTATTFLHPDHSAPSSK
Chain of rat α7 nAChR (rat), Q05941 (Q05941 23-502): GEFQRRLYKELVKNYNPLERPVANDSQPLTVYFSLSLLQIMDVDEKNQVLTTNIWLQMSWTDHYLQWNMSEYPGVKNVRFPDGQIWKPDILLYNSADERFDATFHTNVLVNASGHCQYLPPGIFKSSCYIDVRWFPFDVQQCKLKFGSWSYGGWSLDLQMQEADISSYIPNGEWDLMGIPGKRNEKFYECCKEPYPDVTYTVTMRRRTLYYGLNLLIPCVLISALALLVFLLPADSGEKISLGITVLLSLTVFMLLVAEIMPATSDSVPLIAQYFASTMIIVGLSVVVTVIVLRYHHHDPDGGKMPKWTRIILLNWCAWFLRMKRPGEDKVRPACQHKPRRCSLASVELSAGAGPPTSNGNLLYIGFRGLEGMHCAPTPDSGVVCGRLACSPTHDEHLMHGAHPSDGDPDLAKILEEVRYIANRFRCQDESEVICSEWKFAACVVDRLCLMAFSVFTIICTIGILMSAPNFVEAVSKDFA
Chain of rat α6/α3β4 nAChR (rat), P12392 (P12392 21-495): as the sequence (P12392 21-495, chain 2 of 2, further chain) above
Chain of rat α2β4 nAChR (rat), P12389 (P12389 28-511, chain 1 of 2): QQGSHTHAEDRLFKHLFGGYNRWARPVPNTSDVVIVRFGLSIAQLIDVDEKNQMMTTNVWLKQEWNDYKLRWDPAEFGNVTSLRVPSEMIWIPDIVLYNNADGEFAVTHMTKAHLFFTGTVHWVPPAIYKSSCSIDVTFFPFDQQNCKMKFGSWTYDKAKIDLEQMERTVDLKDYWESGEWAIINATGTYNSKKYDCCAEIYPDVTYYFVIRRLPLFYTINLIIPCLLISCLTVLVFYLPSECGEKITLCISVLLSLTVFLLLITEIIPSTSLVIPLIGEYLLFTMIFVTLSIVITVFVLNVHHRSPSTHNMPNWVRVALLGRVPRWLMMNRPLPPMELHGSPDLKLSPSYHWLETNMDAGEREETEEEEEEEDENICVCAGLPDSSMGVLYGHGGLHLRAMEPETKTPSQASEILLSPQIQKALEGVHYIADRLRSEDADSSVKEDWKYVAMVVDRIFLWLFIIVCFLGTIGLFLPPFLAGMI
Chain of rat α2β4 nAChR (rat), P12389 (P12392 21-495, chain 2 of 2, further chain): as the sequence (P12392 21-495, chain 2 of 2, further chain) above
Chain of rat α2β2 nAChR (rat), P12389 (P12389 28-511, chain 1 of 2): as the sequence (P12389 28-511, chain 1 of 2) above
Chain of rat α2β2 nAChR (rat), P12389 (P12390 25-500, chain 2 of 2, further chain): as the sequence (P12390 25-500, chain 2 of 2, further chain) above

## TCRSSGRYCRSPYDRRRRYCRRITDACV (modifications not checked) [αO-conotoxin GeXIVA12 (GeXIVA mature peptide isomer with disulfide bonds I-II, III-IV)]
[1]
  Half-blocking dose IC50, ACh-gated current, oocyte voltage clamp: 415 nM
[2]
  Half-blocking dose IC50, ACh-gated current, oocyte voltage clamp: 412 nM
[3]
  Half-blocking dose IC50, ACh-gated current, oocyte voltage clamp: 338 nM
[4]
  Half-blocking dose IC50, ACh-gated current, oocyte voltage clamp: 2090 nM
[5]
  Half-blocking dose IC50, NMDA receptor current, oocyte voltage clamp: 3700 nM
[6]
  Half-blocking dose IC50, ACh-gated current, oocyte voltage clamp: 806 nM
[7]
  Half-blocking dose IC50, ACh-gated current, oocyte voltage clamp: 5400 nM
[8]
  Half-blocking dose IC50, ACh-gated current, oocyte voltage clamp: 258 nM
[9]
  Half-blocking dose IC50, ACh-gated current, oocyte voltage clamp: 555 nM
[10]
  Half-blocking dose IC50, NMDA receptor current, oocyte voltage clamp: 655 nM
[11]
  Half-blocking dose IC50, NMDA receptor current, oocyte voltage clamp: 4000 nM
[12]
  Half-blocking dose IC50, NMDA receptor current, oocyte voltage clamp: 5200 nM
[13]
  Half-blocking dose IC50, ACh-gated current, oocyte voltage clamp: 505 nM
[14]
  Half-blocking dose IC50, ACh-gated current, oocyte voltage clamp: 2390 nM
[15]
  Half-blocking dose IC50, ACh-gated current, oocyte voltage clamp: 979 nM
